Series [1] deals with the molecule itself. As to the kind of experiment: mass photometry; Refeyn OneMP; TRAIP diluted to 6.4 ng/µl (~50 nM of TRAIP dimer); 25 mM Hepes-KOH pH 7.9, 150 mM NaCl, 10 mM MgOAc, 1 mM DTT.
Series [2] deals with T1, HisSUMO-TTF2 1-100 (mouse, UniProt Q5NC05 1-100).
T1 construct: mouse TTF2 residues 1-100 (tandem Zinc fingers); also called His-SUMO-tagged TTF2; recombinant form of TTF2 1-100; source: E. coli Rosetta (DE3) pLysS, purified (Ni-NTA, Superdex 200); not shown: 14His, N-terminal, kept; Smt3 (budding yeast SUMO), N-terminal, kept
T1 sequence (looked up): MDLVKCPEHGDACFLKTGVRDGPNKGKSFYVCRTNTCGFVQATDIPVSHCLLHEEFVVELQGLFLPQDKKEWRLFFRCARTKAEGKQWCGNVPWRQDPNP
The series is described as follows: ITC; MicroCal PEAQ-ITC; 20 µM HisSUMO-TTF2 1-100 in the cell, 200 µM TRAIP peptide injected (19 x 2 µl); 50 mM Tris-HCl pH 7.5, 100 mM NaCl, 0.5 mM TCEP. The note with it: both partners purified. Background: ITC needs no label: the signal is the heat of the interaction.

Series [3] addresses T2, HisSUMO-TTF2 1-100 (mouse, UniProt Q5NC05 1-100).
T2 chain: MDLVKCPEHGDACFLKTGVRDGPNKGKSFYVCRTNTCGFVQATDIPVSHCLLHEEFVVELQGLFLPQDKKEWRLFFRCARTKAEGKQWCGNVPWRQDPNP
The series is described as follows: ITC; phosphorylated T325.

Series [4] deals with T3, His-SUMO-TTF2 1-100 (tandem zinc fingers) (Mus musculus, UniProt Q5NC05 1-100).
T3 sequence: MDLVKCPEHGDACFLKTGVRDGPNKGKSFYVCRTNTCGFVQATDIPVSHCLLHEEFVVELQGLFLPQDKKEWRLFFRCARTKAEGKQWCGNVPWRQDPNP
The series is described as follows: EMSA; 10 nM DNA; EMSA buffer (25 mM buffer component; full composition not in the material), 10 nM Cy5-DNA, 10 µl, room temperature, 10 min; Novex TBE 4-12% gel, 150 V, 40 min. The note with it: protein: recombinant, tags: N-terminal 14His-SUMO (yeast Smt3). (In EMSA bound probe runs differently from free probe, usually more slowly.)

Where no end group is shown, it is not given here. [ ]: non-standard residue; d: D form. pT = C[C@@H](OP(=O)(O)O)[C@H](N)C(=O)O

We go through four molecules from article doi:10.1101/2024.12.01.626218, “TTF2 drives mitotic replisome disassembly and MiDAS by coupling the TRAIP ubiquitin ligase to Polε” (bioRxiv, 2024).

B1: recombinant mouse TRAIP (enzyme, UniProt Q8VIG6-1 1-470, looked up)
chain: MPIRALCTICSDFFDHSRDVAAIHCGHTFHLQCLIQWFETAPSRTCPQCRIQVGKKTIINKLFFDLAQEEENVLDAEFLKNELDSVKAQLSQKDREKRDSQAIIDTLRDTLEERNATVESLQNALNKAEMLCSTLKKQMKFLEQRQDETKQAREEAHRLKCKMKTMEQIELLLQSQRSEVEEMIRDMGVGQSAVEQLAVYCVSLKKEYENLKEARKATGELADRLKKDLVSSRSKLKTLNTELDQAKLELRSAQKDLQSADQEITSLRKKLMILQGTLSLPPATNETVSRLVFESPAPVEMMNPRLHQPPFGDEIDLNTTFDVNTPPTQTSGSQHCLPKKLCLERARSPMQNVLKKVHKVSKPESQLSLGGQRCVGELDEELAGAFPLFIRNAVLGQKQPNRTTAESRCSTDVVRIGFDGLGGRTKFIQPRDTTIIRPVPVKSKAKSKQKVRIKTVSSASQPKLDTFLCQ
notes: Mw of the monomer 53.1 kDa; the tag was cut off with Ulp1; also called purified TRAIP; TRAIP ubiquitin ligase; source: E. coli Rosetta (DE3) pLysS, purified (Ni-NTA, HiTrapQ, HiTrap Heparin, Superose 6); not shown: 14His-Smt3 (budding yeast SUMO), N-terminal, cleaved
For orientation: stoichiometry N means the number of molecules, sites or subunits per partner or assembly. Consider B1, for which the “stoichiometry N” value in series [1] is 2.

B2: peptide corresponding to mouse TRAIP 313-329 with phosphorylated T325 (peptide)
peptide: FGDEIDLNTTFDVN[pT]PPTQ
modifications: not fully specified; printed as FGDEIDLNTTFDVN**T**PPTQ
notes: mouse TRAIP; the CDK consensus (T followed by P) points to the 15th letter; also called phosphorylated peptide; source: synthetic peptide (Peptide & Elephants)
For orientation: Kd means the constant that tells how readily two partners part at equilibrium. For the molecule B2, in the series with HisSUMO-TTF2 1-100 [2], the binding result is “binds”. Besides, binding with HisSUMO-TTF2 1-100 [3] was characterised by a dissociation constant (Kd) of 2300 nM.

B3: YX011 80-nt ssDNA (ssDNA)
DNA: CAGTGCCAAGCTTGCATGCCTGCAGGTCGACTCTAGAGGATCCCCGGGTACCGAGCTCGAATTCGTAATCATGGTCATAG
Take B3: in series [4] (label: 5'-Cy5), the binding result is reported as “no binding”.

B4: YX011/YX012 80-bp dsDNA (dsDNA)
DNA 1: CAGTGCCAAGCTTGCATGCCTGCAGGTCGACTCTAGAGGATCCCCGGGTACCGAGCTCGAATTCGTAATCATGGTCATAG
DNA 2: CTATGACCATGATTACGAATTCGAGCTCGGTACCCGGGGATCCTCTAGAGTCGACCTGCAGGCATGCAAGCTTGGCACTG
In the case of B4, the binding result in series [4] (label: 5'-Cy5 on strand 1, blunt) is given as “no binding”.
